Results taken from patent US20140357577A1, “HIV Membrane Fusion Inhibitors” (priority 2011, published 2014).
Starred links: 1 amine or outer side, 2 acyl side, 3 side chain; linkers in the order of their positions; H or OH if unused. Positions of bridges follow the written chain, without caps; N, C: chain ends. *: point of attachment. cholesteryl‑succinyl = CC(C)CCC[C@@H](C)[C@H]1CC[C@H]2[C@@H]3CC=C4C[C@@H](OC(=O)CCC(=O)*)CC[C@]4(C)[C@H]3CC[C@]12C; pXylylene = c1cc(C[*:2])ccc1C[*:1]; Suc = O=C(CCC(=O)[*:2])[*:1]

B1: peptide 61 (peptide)
peptide: Ac-ACYFACIEALIRAAQEQQEKNEAALR-NH2
modifications: linker 2-6 via pXylylene
SMILES: CC[C@H](C)[C@H](NC(=O)[C@H](CC(C)C)NC(=O)[C@H](C)NC(=O)[C@H](CCC(=O)O)NC(=O)[C@@H](NC(=O)[C@@H]1CSCc2ccc(cc2)CSC[C@H](NC(=O)[C@H](C)NC(C)=O)C(=O)N[C@@H](Cc2ccc(O)cc2)C(=O)N[C@@H](Cc2ccccc2)C(=O)N[C@@H](C)C(=O)N1)[C@@H](C)CC)C(=O)N[C@@H](CCCNC(=N)N)C(=O)N[C@@H](C)C(=O)N[C@@H](C)C(=O)N[C@@H](CCC(N)=O)C(=O)N[C@@H](CCC(=O)O)C(=O)N[C@@H](CCC(N)=O)C(=O)N[C@@H](CCC(N)=O)C(=O)N[C@@H](CCC(=O)O)C(=O)N[C@@H](CCCCN)C(=O)N[C@@H](CC(N)=O)C(=O)N[C@@H](CCC(=O)O)C(=O)N[C@@H](C)C(=O)N[C@@H](C)C(=O)N[C@@H](CC(C)C)C(=O)N[C@@H](CCCNC(=N)N)C(N)=O
B2: peptide 62 (peptide)
peptide: Ac-ACYVACIEALIRAAQEQQEKNEAALR-NH2
modifications: linker 2-6 via pXylylene
SMILES: CC[C@H](C)[C@H](NC(=O)[C@H](CC(C)C)NC(=O)[C@H](C)NC(=O)[C@H](CCC(=O)O)NC(=O)[C@@H](NC(=O)[C@@H]1CSCc2ccc(cc2)CSC[C@H](NC(=O)[C@H](C)NC(C)=O)C(=O)N[C@@H](Cc2ccc(O)cc2)C(=O)N[C@@H](C(C)C)C(=O)N[C@@H](C)C(=O)N1)[C@@H](C)CC)C(=O)N[C@@H](CCCNC(=N)N)C(=O)N[C@@H](C)C(=O)N[C@@H](C)C(=O)N[C@@H](CCC(N)=O)C(=O)N[C@@H](CCC(=O)O)C(=O)N[C@@H](CCC(N)=O)C(=O)N[C@@H](CCC(N)=O)C(=O)N[C@@H](CCC(=O)O)C(=O)N[C@@H](CCCCN)C(=O)N[C@@H](CC(N)=O)C(=O)N[C@@H](CCC(=O)O)C(=O)N[C@@H](C)C(=O)N[C@@H](C)C(=O)N[C@@H](CC(C)C)C(=O)N[C@@H](CCCNC(=N)N)C(N)=O
B3: peptide 63 (peptide)
peptide: Ac-ACYWACIEALIRAAQEQQEKNEAALR-NH2
modifications: linker 2-6 via pXylylene
SMILES: CC[C@H](C)[C@H](NC(=O)[C@H](CC(C)C)NC(=O)[C@H](C)NC(=O)[C@H](CCC(=O)O)NC(=O)[C@@H](NC(=O)[C@@H]1CSCc2ccc(cc2)CSC[C@H](NC(=O)[C@H](C)NC(C)=O)C(=O)N[C@@H](Cc2ccc(O)cc2)C(=O)N[C@@H](Cc2c[nH]c3ccccc23)C(=O)N[C@@H](C)C(=O)N1)[C@@H](C)CC)C(=O)N[C@@H](CCCNC(=N)N)C(=O)N[C@@H](C)C(=O)N[C@@H](C)C(=O)N[C@@H](CCC(N)=O)C(=O)N[C@@H](CCC(=O)O)C(=O)N[C@@H](CCC(N)=O)C(=O)N[C@@H](CCC(N)=O)C(=O)N[C@@H](CCC(=O)O)C(=O)N[C@@H](CCCCN)C(=O)N[C@@H](CC(N)=O)C(=O)N[C@@H](CCC(=O)O)C(=O)N[C@@H](C)C(=O)N[C@@H](C)C(=O)N[C@@H](CC(C)C)C(=O)N[C@@H](CCCNC(=N)N)C(N)=O
B4: peptide 64 (peptide)
peptide: Ac-ACYAACIEALIRAAQEQQEKNEAALR-NH2
modifications: linker 2-6 via ortho‑xylene
B5: peptide 65 (peptide)
peptide: Ac-ACYAACIEALIRAAQEQQEKNEAALR-NH2
modifications: linker 2-6 via meta‑xylene
B6: peptide 66 (peptide)
peptide: Ac-ACYAACIEALIRAAQEQQEKNEAALR-NH2
modifications: linker 2-6 via 2,7‑dimethylnaphthyl
B7: peptide 67 (peptide)
peptide: Suc-ACYAACIEALIRAAQEQQEKNEAALR-NH2
modifications: linker 2-6 via pXylylene
SMILES: CC[C@H](C)[C@H](NC(=O)[C@H](CC(C)C)NC(=O)[C@H](C)NC(=O)[C@H](CCC(=O)O)NC(=O)[C@@H](NC(=O)[C@@H]1CSCc2ccc(cc2)CSC[C@H](NC(=O)[C@H](C)NC(=O)CCC(=O)O)C(=O)N[C@@H](Cc2ccc(O)cc2)C(=O)N[C@@H](C)C(=O)N[C@@H](C)C(=O)N1)[C@@H](C)CC)C(=O)N[C@@H](CCCNC(=N)N)C(=O)N[C@@H](C)C(=O)N[C@@H](C)C(=O)N[C@@H](CCC(N)=O)C(=O)N[C@@H](CCC(=O)O)C(=O)N[C@@H](CCC(N)=O)C(=O)N[C@@H](CCC(N)=O)C(=O)N[C@@H](CCC(=O)O)C(=O)N[C@@H](CCCCN)C(=O)N[C@@H](CC(N)=O)C(=O)N[C@@H](CCC(=O)O)C(=O)N[C@@H](C)C(=O)N[C@@H](C)C(=O)N[C@@H](CC(C)C)C(=O)N[C@@H](CCCNC(=N)N)C(N)=O
B8: peptide 68 (peptide)
peptide: Ac-ACYAACIEALIRAAQEQQEKNEAALR-NH2
modifications: linker 2-6 via pXylylene
SMILES: CC[C@H](C)[C@H](NC(=O)[C@H](CC(C)C)NC(=O)[C@H](C)NC(=O)[C@H](CCC(=O)O)NC(=O)[C@@H](NC(=O)[C@@H]1CSCc2ccc(cc2)CSC[C@H](NC(=O)[C@H](C)NC(C)=O)C(=O)N[C@@H](Cc2ccc(O)cc2)C(=O)N[C@@H](C)C(=O)N[C@@H](C)C(=O)N1)[C@@H](C)CC)C(=O)N[C@@H](CCCNC(=N)N)C(=O)N[C@@H](C)C(=O)N[C@@H](C)C(=O)N[C@@H](CCC(N)=O)C(=O)N[C@@H](CCC(=O)O)C(=O)N[C@@H](CCC(N)=O)C(=O)N[C@@H](CCC(N)=O)C(=O)N[C@@H](CCC(=O)O)C(=O)N[C@@H](CCCCN)C(=O)N[C@@H](CC(N)=O)C(=O)N[C@@H](CCC(=O)O)C(=O)N[C@@H](C)C(=O)N[C@@H](C)C(=O)N[C@@H](CC(C)C)C(=O)N[C@@H](CCCNC(=N)N)C(N)=O
B9: peptide 3 (peptide)
peptide: Suc-ANYAALIEALIRAAQEQQEKNEAALR-NH2
SMILES: CC[C@H](C)[C@H](NC(=O)[C@H](CC(C)C)NC(=O)[C@H](C)NC(=O)[C@H](CCC(=O)O)NC(=O)[C@@H](NC(=O)[C@H](CC(C)C)NC(=O)[C@H](C)NC(=O)[C@H](C)NC(=O)[C@H](Cc1ccc(O)cc1)NC(=O)[C@H](CC(N)=O)NC(=O)[C@H](C)NC(=O)CCC(=O)O)[C@@H](C)CC)C(=O)N[C@@H](CCCNC(=N)N)C(=O)N[C@@H](C)C(=O)N[C@@H](C)C(=O)N[C@@H](CCC(N)=O)C(=O)N[C@@H](CCC(=O)O)C(=O)N[C@@H](CCC(N)=O)C(=O)N[C@@H](CCC(N)=O)C(=O)N[C@@H](CCC(=O)O)C(=O)N[C@@H](CCCCN)C(=O)N[C@@H](CC(N)=O)C(=O)N[C@@H](CCC(=O)O)C(=O)N[C@@H](C)C(=O)N[C@@H](C)C(=O)N[C@@H](CC(C)C)C(=O)N[C@@H](CCCNC(=N)N)C(N)=O
B10: peptide 69 (peptide)
peptide: Ac-ANYLALIEALIRAAQEQQEKNEAALRGSGK(cholesteryl‑succinyl)-NH2
SMILES: CC[C@H](C)[C@H](NC(=O)[C@H](CC(C)C)NC(=O)[C@H](C)NC(=O)[C@H](CCC(=O)O)NC(=O)[C@@H](NC(=O)[C@H](CC(C)C)NC(=O)[C@H](C)NC(=O)[C@H](CC(C)C)NC(=O)[C@H](Cc1ccc(O)cc1)NC(=O)[C@H](CC(N)=O)NC(=O)[C@H](C)NC(C)=O)[C@@H](C)CC)C(=O)N[C@@H](CCCNC(=N)N)C(=O)N[C@@H](C)C(=O)N[C@@H](C)C(=O)N[C@@H](CCC(N)=O)C(=O)N[C@@H](CCC(=O)O)C(=O)N[C@@H](CCC(N)=O)C(=O)N[C@@H](CCC(N)=O)C(=O)N[C@@H](CCC(=O)O)C(=O)N[C@@H](CCCCN)C(=O)N[C@@H](CC(N)=O)C(=O)N[C@@H](CCC(=O)O)C(=O)N[C@@H](C)C(=O)N[C@@H](C)C(=O)N[C@@H](CC(C)C)C(=O)N[C@@H](CCCNC(=N)N)C(=O)NCC(=O)N[C@@H](CO)C(=O)NCC(=O)N[C@@H](CCCCNC(=O)CCC(=O)O[C@H]1CC[C@@]2(C)C(=CC[C@H]3[C@@H]4CC[C@H]([C@H](C)CCCC(C)C)[C@@]4(C)CC[C@@H]32)C1)C(N)=O
B11: peptide 70 (peptide)
peptide: Ac-ACYAACIDALIRAAQEQQEKNEAALR-NH2
modifications: linker 2-6 via pXylylene
SMILES: CC[C@H](C)[C@H](NC(=O)[C@H](CC(C)C)NC(=O)[C@H](C)NC(=O)[C@H](CC(=O)O)NC(=O)[C@@H](NC(=O)[C@@H]1CSCc2ccc(cc2)CSC[C@H](NC(=O)[C@H](C)NC(C)=O)C(=O)N[C@@H](Cc2ccc(O)cc2)C(=O)N[C@@H](C)C(=O)N[C@@H](C)C(=O)N1)[C@@H](C)CC)C(=O)N[C@@H](CCCNC(=N)N)C(=O)N[C@@H](C)C(=O)N[C@@H](C)C(=O)N[C@@H](CCC(N)=O)C(=O)N[C@@H](CCC(=O)O)C(=O)N[C@@H](CCC(N)=O)C(=O)N[C@@H](CCC(N)=O)C(=O)N[C@@H](CCC(=O)O)C(=O)N[C@@H](CCCCN)C(=O)N[C@@H](CC(N)=O)C(=O)N[C@@H](CCC(=O)O)C(=O)N[C@@H](C)C(=O)N[C@@H](C)C(=O)N[C@@H](CC(C)C)C(=O)N[C@@H](CCCNC(=N)N)C(N)=O
B12: peptide 71 (peptide)
peptide: Ac-ACYAACIEALIRKAQEQQEKNEAALR-NH2
modifications: linker 2-6 via pXylylene
SMILES: CC[C@H](C)[C@H](NC(=O)[C@@H]1CSCc2ccc(cc2)CSC[C@H](NC(=O)[C@H](C)NC(C)=O)C(=O)N[C@@H](Cc2ccc(O)cc2)C(=O)N[C@@H](C)C(=O)N[C@@H](C)C(=O)N1)C(=O)N[C@@H](CCC(=O)O)C(=O)N[C@@H](C)C(=O)N[C@@H](CC(C)C)C(=O)N[C@H](C(=O)N[C@@H](CCCNC(=N)N)C(=O)N[C@@H](CCCCN)C(=O)N[C@@H](C)C(=O)N[C@@H](CCC(N)=O)C(=O)N[C@@H](CCC(=O)O)C(=O)N[C@@H](CCC(N)=O)C(=O)N[C@@H](CCC(N)=O)C(=O)N[C@@H](CCC(=O)O)C(=O)N[C@@H](CCCCN)C(=O)N[C@@H](CC(N)=O)C(=O)N[C@@H](CCC(=O)O)C(=O)N[C@@H](C)C(=O)N[C@@H](C)C(=O)N[C@@H](CC(C)C)C(=O)N[C@@H](CCCNC(=N)N)C(N)=O)[C@@H](C)CC

Target: gp41 of HIV-1 strain HXB2D with mutation V38A (HIV-1 strain HXB2D, UniProt P04578)
Test: cell-based or functional assay

Binder	fold change in EC50, HIV-HXB2D V38A mutant
B1	20 fold
B2	15 fold
B3	22 fold
B4	15 fold
B5	16 fold
B6	66 fold
B7	30 fold
B8	21 fold
B9	74 fold
B10	1 fold
B11	11 fold
B12	11 fold
